According to PMC11229320, “Dynamics of the Herpes simplex virus DNA polymerase holoenzyme during DNA synthesis and proof-reading revealed by Cryo-EM”:

Key:
[1] = molecular target: T1, UL30 DNA polymerase catalytic subunit;UL42 processivity factor (Herpes simplex virus 1 (HHV-1);Herpes …, UniProt P04293;P10226 1-1235;1-488, |); assay: cryo-EM; DNA editing (exonuclease) state; also 8OJB, 8OJC (active site classes), 8OJD (beta-hairpin loop); Cryo-EM complex buffer not given in material; protein purified in 20 mM HEPES pH 7.8, 400 mM NaCl, 1.5 mM MgCl2, 1 mM DTT, 5% glycerol; conditions: protein: recombinant;recombinant; copies: 1;1; 5' overhang 21 nt on template; 2 mismatches (A/G) at primer 3' end
T1 sequence (P04293 whole entry, chain 1 of 2): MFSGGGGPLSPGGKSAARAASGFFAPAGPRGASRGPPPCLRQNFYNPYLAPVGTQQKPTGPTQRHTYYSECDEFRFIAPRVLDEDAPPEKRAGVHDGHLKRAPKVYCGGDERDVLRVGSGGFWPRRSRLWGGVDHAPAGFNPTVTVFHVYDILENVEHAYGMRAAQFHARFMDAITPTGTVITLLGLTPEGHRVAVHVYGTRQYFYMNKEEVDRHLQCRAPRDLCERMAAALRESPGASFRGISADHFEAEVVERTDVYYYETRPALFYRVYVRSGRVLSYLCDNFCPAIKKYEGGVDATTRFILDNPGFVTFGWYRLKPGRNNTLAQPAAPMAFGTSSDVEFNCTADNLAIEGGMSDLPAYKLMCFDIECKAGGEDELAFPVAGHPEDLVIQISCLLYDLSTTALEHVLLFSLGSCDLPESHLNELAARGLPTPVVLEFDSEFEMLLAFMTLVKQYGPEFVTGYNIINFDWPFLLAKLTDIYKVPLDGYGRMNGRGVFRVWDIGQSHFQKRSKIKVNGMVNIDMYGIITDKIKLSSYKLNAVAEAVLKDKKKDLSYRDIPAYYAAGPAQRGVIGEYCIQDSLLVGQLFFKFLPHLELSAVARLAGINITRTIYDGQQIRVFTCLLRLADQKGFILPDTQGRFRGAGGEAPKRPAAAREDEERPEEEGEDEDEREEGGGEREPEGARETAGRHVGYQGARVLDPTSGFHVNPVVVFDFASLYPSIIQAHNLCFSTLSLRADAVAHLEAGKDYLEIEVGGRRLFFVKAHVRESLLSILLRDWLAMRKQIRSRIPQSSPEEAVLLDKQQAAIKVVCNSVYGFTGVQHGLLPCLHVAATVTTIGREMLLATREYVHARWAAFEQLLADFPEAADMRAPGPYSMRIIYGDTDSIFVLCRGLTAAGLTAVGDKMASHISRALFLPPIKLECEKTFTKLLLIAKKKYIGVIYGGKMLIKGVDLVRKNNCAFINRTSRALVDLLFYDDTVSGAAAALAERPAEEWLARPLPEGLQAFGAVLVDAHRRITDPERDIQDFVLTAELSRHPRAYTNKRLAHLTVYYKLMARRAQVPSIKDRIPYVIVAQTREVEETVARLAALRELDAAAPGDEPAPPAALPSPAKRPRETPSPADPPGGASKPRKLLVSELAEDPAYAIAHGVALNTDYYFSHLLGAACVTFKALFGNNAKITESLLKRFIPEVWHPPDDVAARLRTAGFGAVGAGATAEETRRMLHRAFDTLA
T1 sequence (P10226 whole entry, chain 2 of 2): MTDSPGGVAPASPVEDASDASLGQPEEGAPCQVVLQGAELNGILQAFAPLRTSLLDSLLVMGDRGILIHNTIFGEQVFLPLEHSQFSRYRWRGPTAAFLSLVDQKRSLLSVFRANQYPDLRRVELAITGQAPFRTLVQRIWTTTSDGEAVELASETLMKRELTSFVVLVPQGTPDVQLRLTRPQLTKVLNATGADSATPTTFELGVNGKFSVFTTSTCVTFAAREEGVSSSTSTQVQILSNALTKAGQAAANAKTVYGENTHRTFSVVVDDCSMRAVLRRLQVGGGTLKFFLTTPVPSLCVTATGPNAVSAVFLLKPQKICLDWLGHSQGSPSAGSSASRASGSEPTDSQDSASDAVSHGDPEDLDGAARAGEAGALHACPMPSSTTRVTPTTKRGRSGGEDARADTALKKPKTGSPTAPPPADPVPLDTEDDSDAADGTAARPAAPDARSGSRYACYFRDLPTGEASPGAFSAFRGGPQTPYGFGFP

[2] = molecular target: T1, UL30 DNA polymerase catalytic …; assay: cryo-EM; pre-translocation state, open fingers; 2.4 A; Cryo-EM complex buffer not given in material; protein purified in 20 mM HEPES pH 7.8, 400 mM NaCl, 1.5 mM MgCl2, 1 mM DTT, 5% glycerol; conditions: protein: recombinant;recombinant; copies: 1;1; 5' overhang 26 nt on template (22 bp)
[3] = molecular target: T1, UL30 DNA polymerase catalytic …; assay: cryo-EM; halted elongation state, dATP in dNTP pocket; 1 mM dATP/dGTP/dTTP/ddCTP mix; Cryo-EM complex buffer not given in material; protein purified in 20 mM HEPES pH 7.8, 400 mM NaCl, 1.5 mM MgCl2, 1 mM DTT, 5% glycerol; conditions: protein: recombinant;recombinant; copies: 1;1; 5' overhang 14 nt on template after extension (22 nt before)
[4] = molecular target: T1, UL30 DNA polymerase catalytic …; assay: cryo-EM; DNA editing (exonuclease) state; also 9ENQ (active site); Cryo-EM complex buffer not given in material; protein purified in 20 mM HEPES pH 7.8, 400 mM NaCl, 1.5 mM MgCl2, 1 mM DTT, 5% glycerol; conditions: protein: recombinant;recombinant; copies: 1;1; 5' overhang 21 nt on template; 1 mismatch (A/G) at primer 3' end

B1: 2-bp mismatch exonuclease primer-template (dsDNA)
DNA 1: ATTTGCTGACCTTTGTTCTGGGGTGAGTTGGTTGGACGGCTGCGAGGCGATCAAGGTGTCGTAGTGGC
DNA 2: GCCACTACGACACCTTGATCGCCTCGCAGCCGTCCAACCAACTCAAA
modifications: * before each of the last two A of primer (phosphorothioate?; not defined in material)
[1]
  binding result: binds

B2: pre-translocation primer-template (dsDNA)
DNA 1: CGAAAGTACGTTATTGCGACTGGCCGTCGCTCTACAACGTCGTGACTG
DNA 2: CAGTCACGACGTTGTAGAGCGA
[2]
  binding result: binds

B3: halted elongation primer-template (ddC-terminated) (dsDNA)
DNA 1: ATTTGCTGACCTTTGTTCTAATTGAGTTGGTTGGACGGCTGCGAGGCGATCAAGGTGTCGTAGTGGC
DNA 2: GCCACTACGACACCTTGATCGCCTCGCAGCCGTCCAACCAACTCAATTAGAAC
modifications: 3'-terminal ddC on primer, added in situ: printed primer S5 extended with dATP, dGTP, dTTP, ddCTP to first template G
[3]
  binding result: binds

B4: 1-bp mismatch exonuclease primer-template (dsDNA)
DNA 1: ATTTGCTGACCTTTGTTCTGGGTGAGTTGGTTGGACGGCTGCGAGGCGATCAAGGTGTCGTAGTGGC
DNA 2: GCCACTACGACACCTTGATCGCCTCGCAGCCGTCCAACCAACTCAA
modifications: * before each of the last two A of primer (phosphorothioate?; not defined in material)
[4]
  binding result: binds
